Columns and labels:
human CD5 on cells [1] = target: T1, human CD5 on cells (human, UniProt P06127 25-495); experiment: flow cytometry on MOLT-4 cells, antibody titration, anti-mouse AF488 secondary, 4 C
T1 construct: Endogenous CD5 on MOLT-4 human T lymphoblast cells or primary human T cells; The cell type is named under assay; also called CD5 on MOLT-4 cells; CD5 on primary human T-cells
T1 sequence (looked up): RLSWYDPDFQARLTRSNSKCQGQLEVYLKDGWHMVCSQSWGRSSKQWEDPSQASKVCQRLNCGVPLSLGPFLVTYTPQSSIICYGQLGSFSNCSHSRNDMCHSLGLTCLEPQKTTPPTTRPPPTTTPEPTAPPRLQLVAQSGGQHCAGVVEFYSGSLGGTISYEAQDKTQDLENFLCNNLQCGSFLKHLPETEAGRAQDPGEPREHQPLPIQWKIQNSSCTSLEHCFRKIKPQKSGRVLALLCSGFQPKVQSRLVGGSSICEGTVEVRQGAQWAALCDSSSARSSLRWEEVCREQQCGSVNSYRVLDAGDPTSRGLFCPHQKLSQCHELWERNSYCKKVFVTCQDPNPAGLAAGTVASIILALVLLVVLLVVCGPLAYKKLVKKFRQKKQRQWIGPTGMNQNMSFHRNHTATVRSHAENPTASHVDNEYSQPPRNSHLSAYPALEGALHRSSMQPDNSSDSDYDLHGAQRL

human CD5 on cells [2] = target: T1, human CD5 on cells; experiment: flow cytometry on MOLT-4 cells, antibody titration 2 h at 4 C, anti-mouse AF488 secondary, geometric MFI
human CD2 on cells [3] = target: T2, human CD2 on cells (human, UniProt P06729 25-351); experiment: flow cytometry on MOLT-4 cells, antibody titration, anti-mouse AF488 secondary, 4 C
T2 construct: Endogenous CD2 on MOLT-4 human T lymphoblast cells, primary human T cells or primary human NK cells; The cell type is named under assay; also called CD2 on MOLT-4 cells; CD2 on primary human T-cells
T2 sequence: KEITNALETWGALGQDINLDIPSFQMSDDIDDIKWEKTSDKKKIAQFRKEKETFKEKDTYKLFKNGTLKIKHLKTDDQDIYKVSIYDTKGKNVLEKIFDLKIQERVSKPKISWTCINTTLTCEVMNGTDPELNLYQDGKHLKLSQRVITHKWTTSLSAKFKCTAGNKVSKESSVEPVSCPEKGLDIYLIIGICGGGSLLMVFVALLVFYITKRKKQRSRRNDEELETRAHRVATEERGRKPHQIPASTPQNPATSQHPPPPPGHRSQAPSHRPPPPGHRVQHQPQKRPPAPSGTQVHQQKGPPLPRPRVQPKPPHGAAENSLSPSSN

[4] = target: T3, purified human CD5 ectodomain (human, UniProt P06127 25-372); experiment: BLI (Octet Red96), IgG on anti-human Fc biosensor, 50 nM human CD5 ectodomain
T3 sequence (looked up): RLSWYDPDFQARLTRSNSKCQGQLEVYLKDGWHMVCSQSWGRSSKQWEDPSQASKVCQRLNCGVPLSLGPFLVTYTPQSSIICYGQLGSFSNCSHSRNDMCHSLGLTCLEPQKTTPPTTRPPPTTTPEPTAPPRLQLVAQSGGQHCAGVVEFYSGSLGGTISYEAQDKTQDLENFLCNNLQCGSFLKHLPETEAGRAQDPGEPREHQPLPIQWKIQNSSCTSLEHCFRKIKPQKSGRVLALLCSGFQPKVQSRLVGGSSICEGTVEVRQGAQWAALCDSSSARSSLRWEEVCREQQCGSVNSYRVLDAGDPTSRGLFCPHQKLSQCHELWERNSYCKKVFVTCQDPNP
Method: To determine the binding characteristics of anti-CD5 antibody 5D7 hIgG1, antibody binding studies were performed at 25 degrees celsius in 1×PBS supplemented with 0.1% w/v bovine serum albumin with a Pall ForteBio Octet Red96 using biolayer interferometry (BLI).

human CD5 on cells [5] = target: T1, human CD5 on cells; experiment: flow cytometry on primary human T-cells, antibody titration 2 h at 37 C, AF488 secondary
human CD5 on cells [6] = target: T1, human CD5 on cells; experiment: flow cytometry on primary human T-cells, antibody titration 2 h at 37 C, AF488 secondary, MFI
Method: Secondary anti-mouse AF488 stain, at a constant amount, was added for 30 minutes at 4° C.

[7] = target: T4, purified human CD2 ectodomain (human, UniProt P06729 25-209); experiment: BLI (Octet Red96), IgG on anti-murine Fc biosensor, 50 nM human CD2 ectodomain, 1:1 model, apparent monovalent affinity
T4 construct: Bought reagent; also called Sigma Aldrich Catalog #5086
T4 sequence: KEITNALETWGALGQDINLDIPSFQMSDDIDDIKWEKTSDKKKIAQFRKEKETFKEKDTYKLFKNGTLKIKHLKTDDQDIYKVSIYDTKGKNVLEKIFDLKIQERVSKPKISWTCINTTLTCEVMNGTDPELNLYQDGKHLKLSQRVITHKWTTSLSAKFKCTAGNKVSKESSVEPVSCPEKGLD

human CD2 on cells [8] = target: T2, human CD2 on cells; experiment: flow cytometry on primary human T-cells, antibody titration 2 h at 37 C, AF488 secondary
[9] = target: T4, purified human CD2 ectodomain; experiment: BLI (Octet Red96), IgG on anti-murine Fc biosensor, 50 nM human CD2 ectodomain, 1:1 model
human CD2 on cells [10] = target: T2, human CD2 on cells; experiment: flow cytometry on primary human T-cells, antibody titration 2 h at 37 C, AF488 secondary, MFI
Method: Primary human T-cells were plated at 8×10⁴ cells/well and stained with a titration of the murine anti-CD23 antibody RPA-2.10 for 2 hours at 37° C. Secondary anti-mouse or anti-human AF488 stain, relative to primary antibody, at a constant amount, was added for 30 minutes at 4° C. After washing, plates were run on a flow cytometer and binding of the indicated antibody (and the negative control, i.e., mIgG1 or hIgG1) was determined based on geometric mean fluorescence intensity in the AF488 channel.

[11] = target: T4, purified human CD2 ectodomain; experiment: BLI (Octet Red96), IgG on anti-human Fc biosensor, 50 nM human CD2 ectodomain, 1:1 model
[12] = target: T4, purified human CD2 ectodomain; experiment: BLI (Octet Red96), IgG on anti-human Fc biosensor, 50 nM human CD2 ectodomain, 1:1 model, apparent monovalent affinity

Molecule: murine anti-CD5 antibody CRIS-1 (Novus Biologicals)
- EC50 (human CD5 on cells [1]): 0.043 nM
- EC50 (read off the curve) (human CD5 on cells [2]): 40 pM

Molecule: murine anti-CD2 antibody TS1/8
- EC50 (human CD2 on cells [3]): 0.125 nM

Molecule: murine anti-CD5 antibody UCHT2 (BioLegend)
- EC50 (human CD5 on cells [1]): 0.354 nM
- EC50 (read off the curve) (human CD5 on cells [2]): 300 pM

B1: anti-CD5 antibody 5D7 hIgG1 (humanized version of murine antibody 5D7) (antibody, V domains shown)
VH: QVTLKESGPVLVKPTETLTLTCTFSGFSLSTSGMGVGWIRQAPGKGLEWVAHIWWDDDVYYNPSLKSRLTITKDASKDQVSLKLSSVTAADTAVYYCVRRRATGTGFDYWGQGTLVTVSS
VL: NIVMTQSPSSLSASVGDRVTITCQASQDVGTAVAWYQQKPDQSPKLLIYWTSTRHTGVPDRFTGSGSGTDFTLTISSLQPEDIATYFCHQYNSYNTFGSGTKLEIK
notes: Tested as human IgG1 (hIgG1); also called anti-CD5 5D7 antibody; humanized 5D7
- Kd [4]: 0.141 nM
- koff [4]: 3.36e-05 s⁻¹
- kon [4]: 239000 M⁻¹ s⁻¹
- EC50 (human CD5 on cells [5]): 3 pM
- EC50 (read off the curve) (human CD5 on cells [6]): ~30 pM

B2: anti-CD2 antibody RPA-2.10 mIgG1 (antibody, V domains shown)
VH: EVKLVESGGGLVKPGGSLKLSCAASGFTFSSYDMSWVRQTPEKRLEWVASISGGGFLYYLDSVKGRFTISRDNARNILYLHMTSLRSEDTAMYYCARSSYGEIMDYWGQGTSVTVSS
VL: DILLTQSPAILSVSPGERVSFSCRASQRIGTSIHWYQQRTTGSPRLLIKYASESISGIPSRFSGSGSGTDFTLSINSVESEDVADYYCQQSHGWPFTFGGGTKLEIER
notes: Murine IgG1; also called mRPA-2.10; murine anti-CD2 antibody RPA-2.10
- Kd [7]: 2 nM
- EC50 (human CD2 on cells [8]): 1.84 pM
- koff [9]: 0.000172 s⁻¹
- kon [9]: 86000 M⁻¹ s⁻¹
- EC50 (human CD2 on cells [3]): 0.16 nM
- EC50 (read off the curve) (human CD2 on cells [10]): ~30 pM

B3: anti-CD2 antibody Ab1 hIgG1 (antibody, V domains shown)
VH: QVQLVQSGAEVKKPGASVKVSCKASGYTFTEYYMYWVRQAPGQGLELMGRIDPEDGSIDYVEKFKKKVTLTADTSSSTAYMELSSLTSDDTAVYYCARGKFNYRFAYWGQGTLVTVSS
VL: DVVMTQSPPSLLVTLGQPASISCRSSQSLLHSSGNTYLNWLLQRPGQSPQPLIYLVSKLESGVPDRFSGSGSGTDFTLKISGVEAEDVGVYYCMQFTHYPYTFGQGTKLEIK
notes: Tested as human IgG1 (hIgG1)
- koff [11]: 0.000289 s⁻¹
- kon [11]: 136000 M⁻¹ s⁻¹
- Kd [12]: 2.12 nM

— patent US20220249683A1 (MAGENTA THERAPEUTICS, published 2022)
